± gives the standard deviation of the averaged measurements.
Test system: ATP
Assay: switch fluorescence ratio, 500 uM ATP over buffer (Cy3 cluster intensity, sum of 5 cycles each) (fold (ratio)); higher = stronger signal-on switching upon ATP binding; sequences stand for … in TCGTCGGCAGCGTCAGATGTGTATAAGAGACAGTTTTTTTTTTTTTTTTTTTTTTTTT…TC
Conditions: aptamer strand: ATP DNA aptamer (quencher-CACCTGGGGGAGTATTGCGGAGGAAGG + anchor), 100 nM annealed; ATP concentration: 500 uM
Outline: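 Clusters with intensities outside 100-1000 RFU were excluded. The remaining Cy3-labelled switching-strand clusters on a modified Illumina MiSeq flow-cell had been annealed to 100 nM quencher-labelled ATP aptamer and imaged in selection buffer, then after 15 min with 500 uM ATP at 22 °C, for five cycles separated by NaOH stripping and re-annealing. The fluorescence ratio, averaged per switch-domain sequence, is each cluster's summed target-cycle Cy3 intensity over its summed buffer-cycle Cy3 intensity.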
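Note: ATP exposure 15 min at 22 °C before imaging.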

Sequence	switch fluorescence ratio
TTTGTTCGTT	1.01 ± 0.029
AAATATGGTG	1 ± 0.021
TGGGACATGT	1.02 ± 0.019
TGATTTGACA	1.01 ± 0.013
GGTTTTGTTA	1.03 ± 0.086
TGTTATTACC	1 ± 0.013
ATTGGGAGAG	1.02 ± 0.035
GATCATTTTT	0.984 ± 0.021
TCTGGCTATT	1.01 ± 0.02
CCTACGGAAG	2.07 ± 0.045
CTTTTACATA	1.03 ± 0.018
TATGCTTGGT	1.015 ± 0.003
AGGTTAGTGT	0.9584 ± 0.001
TTTGTTACTA	1 ± 0.1
AATTTACGGA	1.06 ± 0.037
CATTGACATA	1.07 ± 0.034
ATCCCAATGT	1.14 ± 0.026
GAAGTTATTT	0.981 ± 0.021
AGACGAGACT	1.08 ± 0.03
AGACGGTAGC	1.01 ± 0.026
AGTGGCGTGT	0.988 ± 0.022
TGTGAATAGG	1.02 ± 0.065
CGGTGGACTG	1.07 ± 0.014

Sequence	switch fluorescence ratio
TTGTGTGTGG	0.976 ± 0.021
GGGCTAGTCG	1.01 ± 0.034
GGGGGGCGAG	0.9864 ± 0.0052
ATTTATCTGA	0.99 ± 0.016
GAATTTATAT	0.998 ± 0.0032
GACGGCGCAG	1.06 ± 0.14
TAGAGCGGGA	1.008 ± 0.0087
TTATCGGTTT	0.958 ± 0.019
CAATTTTTCA	1 ± 0.069
AGAGGATGGG	1 ± 0.034
GGATAGAGTG	0.971 ± 0.052
TTACTTATTA	1.07 ± 0.018
ACATGTAGGA	1 ± 0.032
TTTTATGAGC	1.03 ± 0.045
GCATGGAGGG	1.01 ± 0.025
TGATTCTAAG	0.977 ± 0.019
AAGTGTCAGT	0.977 ± 0.065
ACGGGGACTG	1.0927 ± 0.00086
TGGGTCCAAA	1.006 ± 0.0076
TGCGTCGCCT	1.013 ± 0.0049
GATTGGGAGC	1.01 ± 0.037
TTTGCCATAG	1.02 ± 0.022
AAGGGTAATG	0.9875 ± 0.0042

Sequence	switch fluorescence ratio
TTGGGACTTG	0.999 ± 0.054
GGTGTTTTTG	1.05 ± 0.054
AGTCTAAATT	1.02 ± 0.011
TCTGGGAATT	1.046 ± 0.0027
TGTTGGGGGA	0.979 ± 0.03
TAGGAGGGGG	0.995 ± 0.04
GGGGACTGAG	0.983 ± 0.029
CCTAGCCTGC	1.16 ± 0.054
CGTTAGCATT	1.17 ± 0.027
ATTTATCCAA	1 ± 0.039
CTGGAATGTT	1.012 ± 0.01
AAGGGAATGG	1.04 ± 0.046
AGATCAAGAG	0.974 ± 0.04
AAAATGAAGT	1.03 ± 0.048
ATTTGGCTGT	0.997 ± 0.023
TTGTGATAGA	1.06 ± 0.052
GCGTTGGGGT	1.01 ± 0.019
CATTGGGGCG	0.926 ± 0.019
TCCCTTTAGT	1.01 ± 0.024
ACCCAGGAGC	1.35 ± 0.12
AGGGGTGTCT	1.03 ± 0.017
AAAATGGTGG	1.02 ± 0.013
TAAGTGGTGC	1.05 ± 0.031

Sequence	switch fluorescence ratio
TACGTGAATT	1.04 ± 0.05
ATAAGTTGTT	0.993 ± 0.02
GTGGGGTACT	0.9612 ± 0.0055
GTCGATAGCG	0.984 ± 0.015
TTTATTTTTA	0.986 ± 0.019
GGAAAAATTG	1.02 ± 0.021
GTTTCGCGGT	1.04 ± 0.067
GGTATACGCA	1.14 ± 0.028
AGGAGAGGAG	1.02 ± 0.038
CGCCGGCACT	0.992 ± 0.027
GAATGTTGTT	0.9476 ± 0.0092
GGGGGGTGGA	1.01 ± 0.028
TAATGGAGTA	1.01 ± 0.052
CAGTAGTCGA	1.03 ± 0.014
TCATTGAGGA	0.992 ± 0.014
CTCGGGTGCG	0.973 ± 0.071
ACGGGGATTT	1.01 ± 0.019
TCGAAAGTCT	0.995 ± 0.012
CGGATAGAGC	0.9951 ± 0.0085
CATTCTTTTT	1.02 ± 0.049
TATCACGGTA	1.176 ± 0.011
ACGAAAGGTG	1.58 ± 0.072
CCAATGCTGT	1.115 ± 0.0091

Sequence	switch fluorescence ratio
AAAGAGTAGA	1.025 ± 0.0034
ACTAGTAGGG	1 ± 0.0095
TATGAAGAGT	1.01 ± 0.017
GATGGATTCG	1.01 ± 0.026
GGTTCGAAGG	0.95 ± 0.032
TCATGAGTTG	0.963 ± 0.018
GATCCTGGGC	1.03 ± 0.015
GGGCAACTGG	1.11 ± 0.15
CATATTCTTT	0.979 ± 0.016
ACTGTGCGCC	1.01 ± 0.029
CCTTGCCGTT	0.99 ± 0.017
AGTTGTAGGG	1 ± 0.016
GGGGGAATAC	2.26 ± 0.5
AAGAAATTGG	0.9446 ± 0.0027
CGGGTAAGCC	0.961 ± 0.027
ATAGGTAGCG	1.01 ± 0.023
AGGGTTGCGC	1.02 ± 0.019
TTACCGGGGT	0.995 ± 0.035
GGGTTCTAGG	0.999 ± 0.043
GGGTTGGGAC	1.01 ± 0.051
TCCTCGGGGC	1.6 ± 0.095
ATCTCTTTCT	1.04 ± 0.019
GAGTTTTGTG	0.961 ± 0.015

Sequence	switch fluorescence ratio
TAGTAGACGA	0.982 ± 0.034
TGGCGGCCGA	0.996 ± 0.021
ATCCACGCTA	1.45 ± 0.022
GGGGCGAGG	0.994 ± 0.053
CCGTCAAGGA	1.94 ± 1.2
GGGTATCA	0.954 ± 0.021
TTCCTGTGAT	1.22 ± 0.27
TGACTGGCTT	1.014 ± 0.01
TAGTCCGGGC	1 ± 0.076
TTAAGTTTTC	0.979 ± 0.015
TAGGAATTTT	0.984 ± 0.016
TTTAAGGAAC	1.03 ± 0.026
GAAGCCCACG	1.09 ± 0.019
GGTAATGCGG	1.01 ± 0.041
TTCGCACCGG	1.021 ± 0.0073
GATCCAGCGG	1.02 ± 0.025
CTCGATGCGT	1.04 ± 0.013
GCAACTTCGG	0.992 ± 0.016
CTTGGATGTT	0.987 ± 0.024
CCCGATGCGC	1.42 ± 0.51
TAAATCGGGG	0.995 ± 0.049
CAGAGTCGGT	1 ± 0.024
CGGAGTACGG	1.06 ± 0.075

Sequence	switch fluorescence ratio
TTTAGGGTGG	1.01 ± 0.012
GCACTGGT	1.04 ± 0.062
CTCGTACGAG	1.02 ± 0.021
ATTTTGAATG	0.979 ± 0.05
TTTGGCGATT	0.962 ± 0.017
ACTTGTGGGG	0.973 ± 0.037
TTTTAGTCTA	0.9809 ± 0.0021
AATGAATAGA	1.012 ± 0.008
CATGTGGGTA	0.981 ± 0.053
ACGTGTGCGG	0.959 ± 0.031
AGAGCATTGA	1.013 ± 0.007
TGGGAATATC	1.05 ± 0.028
ATTAGAAAGC	0.981 ± 0.039
CGCCCCGGCC	1.06 ± 0.097
TATATGTAGA	1.03 ± 0.011
CGTAAAAAT	1.01 ± 0.027
GGTTGTAAGG	1.01 ± 0.033
ATAGTACGTG	1.01 ± 0.024
CGTCAATCT	1.53 ± 0.061
